Substrate in this series: O=[N+]([O-])c1ccc(O[C@@H]2O[C@H](CO)[C@@H](O)[C@H](O)[C@H]2O)cc1
The series can be described thus: purified protein. Particulars: 100 mM Na2HPO4-citric acid.

The mark [1] stands for this setting: optimal conditions (pH 5.5, 55 °C in table; 60 °C in text), pH 5.5.

B1: HiBgl3C (Mycothermus thermophilus) (protein)
chain: APNCPVVPRQASGTAAWDTAYASARAAVARLSQQDKINIVTGIGWERGPCVGNTAPVNSIGYPQLCLQDGPLGIRFATGTTAFTPGVQAASTWDVDLIRQRGEYLGAEARAVGVHVLLGPVAGALGKIPHGGRNWEGFGSDPYLAGICMAETIEAIQSQGVQACAKHYIVNEQEWMRETMSSNVDDRTMHEIYLWPFADAAHSNVASFMCSYNKINGTWACESDSVQNKLLKQELGFRGYIMSDWNAQHTTVGSANSGMDMTMPGTDFSGGNVLWGPQLNNAVNSGQVSRARLDDMATRILAAWYLVGQDKGYPQVNLRLNVQGNHKENVRAVARDGIVLLRNEGNILPLGRPSRIAVVGSGAVIGRHAQNGCQDKGCNDGALGMGWGSGSVNYPYFVAPYDAIRERASRDGTQVSLHSSDNTNGVQNVVQGADVAIVFITADSGEGYITVEGHPGDRNHLDPWHNGNQLVQAVAAANKNTIVVVHSTGPIILETILNTPGVRAVVWAGLPSQENGNAIVDILYGSTSPSGKLVYTIAKRPEDYGVSIVRGDDNFREGVFVDYRWFDQNNIEPRFEFGFGLSYTNFSYSGLSITSNARAGPATGPTIPGGPADLWETVATVTAQITNTGGVAGAEVAQLYLTLPPTAPPAGPRQLRGFTKLKLQPGQTGTATFKLRKRDLSYWDVGRQQWVVPSGRFTISVGASSRDIRLTGSIDV
Turning to B1, under setting [1], the Km (in general, the substrate concentration at which the rate is half of its maximum) was 200 µM and the kcat/Km – broadly, the turnover number divided by the Michaelis constant – amounted to 1.56e+06 M⁻¹ s⁻¹.

B2: HiBgl3A (Mycothermus thermophilus) (protein)
chain: NRHRQVIGRNHLNHHHRSQRELAYSPPSYPSPWMDPKAAEWQNAYAKAKAFVSKLTLLEKVNLTTGVGWASEQCVGNTGSVPRLGLRGLCLHDSPLGIRGSDYNSAFPSGQTTAATFDRILMYRRGYAMGKEAKGKGINVLLGPVAGPLGRMPAAGRNWEGFSPDPVLTGVGMAETIKGIQDAGVVACAKHLIGNEQEHFRQAGEDYGFNITEALSSNIDDKTMHELYLWPFVDAVRAGVGSVMCAYTQVNNSYSCQNSYLLNYLLKNELGFQGFVMSDWQAQHAGVSAAVAGLDMSMPGDTTFNTGVSFWGANLTLAVLNGTVPRYRIDDMAMRIMAAFFKVHPDIHLDPVNFSFWTRQTYGPLHWRAGDGYQQVNFHVDVREDHHLLIREIAAKGTVLLKNTGGLPLKKPKFIAVIGDDAGPNPNGPNSCDDRGCNNGTLAMGWGSGTANFPYLITPDAALQARALRDGTRYESVLTNYALEKTETLVSQANATAIVFVNANSGEGYTRVDGNMGDRKNLTLWGNGDDLIKNVSSWCSNTIVVIHSTGPVLLTDWYNSPNITAILWAGLPGQESGNSLVDVLYGDVNPAGRTPFTWGATRESYGVDVMYKPNNDDGAPQQDFDEGVFIDYRYFDREDTPVIYEFGHGLSYTTFNYSNLKIEKHNAEPYKPTTGKTTPAPTFGQDDAYGYTGSEKYLFPPSPFRRITDYIYPYLNSTDPHEASLDPHYGQTAEQFLPPGALRADEQPLLRASGQHQPGGNPGLWDVLYTITADITNMGSVTGDEVPQLYVSLGGPQDPKVVLRGFDRLREIGPGETRQFMARLTRRDLSNWDPVLQDWVVGGHKKTVFVGKSSRKLELSAELP
B2: under “pH 5.5, 60 °C, pH 5.5, 60.0 °C”, the Km was 900 µM; the Vmax (in general, the rate approached at saturating substrate) turned out to be 46.2 µmol/min/mg; the kcat (in general, the maximal rate divided by the concentration of active sites) stood at 73.1 s⁻¹; the kcat/Km stood at 81600 M⁻¹ s⁻¹.

B3: HiBgl3A (Mycothermus thermophilus; Y529T) (protein)
chain: NRHRQVIGRNHLNHHHRSQRELAYSPPSYPSPWMDPKAAEWQNAYAKAKAFVSKLTLLEKVNLTTGVGWASEQCVGNTGSVPRLGLRGLCLHDSPLGIRGSDYNSAFPSGQTTAATFDRILMYRRGYAMGKEAKGKGINVLLGPVAGPLGRMPAAGRNWEGFSPDPVLTGVGMAETIKGIQDAGVVACAKHLIGNEQEHFRQAGEDYGFNITEALSSNIDDKTMHELYLWPFVDAVRAGVGSVMCAYTQVNNSYSCQNSYLLNYLLKNELGFQGFVMSDWQAQHAGVSAAVAGLDMSMPGDTTFNTGVSFWGANLTLAVLNGTVPRYRIDDMAMRIMAAFFKVHPDIHLDPVNFSFWTRQTYGPLHWRAGDGYQQVNFHVDVREDHHLLIREIAAKGTVLLKNTGGLPLKKPKFIAVIGDDAGPNPNGPNSCDDRGCNNGTLAMGWGSGTANFPYLITPDAALQARALRDGTRYESVLTNYALEKTETLVSQANATAIVFVNANSGEGTTRVDGNMGDRKNLTLWGNGDDLIKNVSSWCSNTIVVIHSTGPVLLTDWYNSPNITAILWAGLPGQESGNSLVDVLYGDVNPAGRTPFTWGATRESYGVDVMYKPNNDDGAPQQDFDEGVFIDYRYFDREDTPVIYEFGHGLSYTTFNYSNLKIEKHNAEPYKPTTGKTTPAPTFGQDDAYGYTGSEKYLFPPSPFRRITDYIYPYLNSTDPHEASLDPHYGQTAEQFLPPGALRADEQPLLRASGQHQPGGNPGLWDVLYTITADITNMGSVTGDEVPQLYVSLGGPQDPKVVLRGFDRLREIGPGETRQFMARLTRRDLSNWDPVLQDWVVGGHKKTVFVGKSSRKLELSAELP
On to B3, for which, for the setting “optimal conditions”, the Km was found to be 2450 µM, the Vmax was determined as 43 µmol/min/mg, the kcat was determined as 68.2 s⁻¹ and the kcat/Km was 27800 M⁻¹ s⁻¹.

B4: HiBgl3B (Mycothermus thermophilus; I311F) (protein)
chain: RVVEPRDPVPQGYHAASYYPAPHGGWVSSWREAYEKAYALVSQMTLAEKVNITSGVGIYMGPCVGNTGSVDRLGFPQLCLQDSALGVASADNVTAFPAGITTGATWDKQLMYARGVAIGKEFRGKGANIHLGPSVGPLGRKPLGGRNWEGFGSDPVLQGKAAALHIRGVQEQGIIATIKHLVGNEQEMYRMYHIFQEGYSANIDDRTLHELYLWPFAEAVRAGVGAAMTAYNAVNGSACSQNSYLINGILKDELGFQGLVMSDWLSHISGVGSALAGLDLNMPGDTNFPLFGNSLWQYELTRAVLNGSVPVDRLNDMATRVVATWYKFGQDKNHPRPNFSSNTRSRDGPLYPGALFSPSGQVNWFVNVQEDHYLVARQVAQDAITLLKNNDSLLPLDAGDLTGGKLSVFGTDAQVNPDGPNSCLARACNKGTLGMGWGSGIADYPYMDDPIGAIRKRVPDVKFYNTDSFPWFFGTPENDEVAMVFISSDSGENTLTVEGNHGDRDSAKLRAWHDGDKLVQKVAEKFKNVIVVVHTVGPLDLEPWIELPSVKAVLFAHLPGQEAGESLTNVLFGDVSPSGHLPYSITRKASDLPDSIANLKGFTWGQVQDTYSEGLYIDYRYLQKHSIQPRFAFGHGLSYTNFSFTNATIRAITTPLSVTPPAPPATRPASVVAKYSTDIPPASEAYEPAGFSRIWRYLYPWLSKSDADAAHAIGTSKSKTYPYPPGYSTVQRASFPPAGGGEGGNPALWDVAYEVTVRVTNTGKRPGKASAQLYLQFPEGIEYDTPVLQLRDFEKTKELQPGESQELKLTLTRKDVSVWDVRRQNWVVPTAIDDKKGFTAWVGEASDKLKVACYTGEGRCVEGAKQPV
Regarding B4, under “optimal conditions”, the Km stood at 2420 µM, the Vmax worked out at 6.07 µmol/min/mg, the kcat was 9.61 s⁻¹ and the kcat/Km is 3980 M⁻¹ s⁻¹.

B5: HiBgl3B (Mycothermus thermophilus; T517Y) (protein)
chain: RVVEPRDPVPQGYHAASYYPAPHGGWVSSWREAYEKAYALVSQMTLAEKVNITSGVGIYMGPCVGNTGSVDRLGFPQLCLQDSALGVASADNVTAFPAGITTGATWDKQLMYARGVAIGKEFRGKGANIHLGPSVGPLGRKPLGGRNWEGFGSDPVLQGKAAALHIRGVQEQGIIATIKHLVGNEQEMYRMYHIFQEGYSANIDDRTLHELYLWPFAEAVRAGVGAAMTAYNAVNGSACSQNSYLINGILKDELGFQGLVMSDWLSHISGVGSALAGLDLNMPGDTNIPLFGNSLWQYELTRAVLNGSVPVDRLNDMATRVVATWYKFGQDKNHPRPNFSSNTRSRDGPLYPGALFSPSGQVNWFVNVQEDHYLVARQVAQDAITLLKNNDSLLPLDAGDLTGGKLSVFGTDAQVNPDGPNSCLARACNKGTLGMGWGSGIADYPYMDDPIGAIRKRVPDVKFYNTDSFPWFFGTPENDEVAMVFISSDSGENYLTVEGNHGDRDSAKLRAWHDGDKLVQKVAEKFKNVIVVVHTVGPLDLEPWIELPSVKAVLFAHLPGQEAGESLTNVLFGDVSPSGHLPYSITRKASDLPDSIANLKGFTWGQVQDTYSEGLYIDYRYLQKHSIQPRFAFGHGLSYTNFSFTNATIRAITTPLSVTPPAPPATRPASVVAKYSTDIPPASEAYEPAGFSRIWRYLYPWLSKSDADAAHAIGTSKSKTYPYPPGYSTVQRASFPPAGGGEGGNPALWDVAYEVTVRVTNTGKRPGKASAQLYLQFPEGIEYDTPVLQLRDFEKTKELQPGESQELKLTLTRKDVSVWDVRRQNWVVPTAIDDKKGFTAWVGEASDKLKVACYTGEGRCVEGAKQPV
As for B5, under “optimal conditions”, the Km turned out to be 2370 µM, the Vmax came out at 9.51 µmol/min/mg, the kcat turned out to be 15.1 s⁻¹ and the kcat/Km is 6360 M⁻¹ s⁻¹.

B6: HiBgl3B (Mycothermus thermophilus; I311F/I81W/T517Y) (protein)
chain: RVVEPRDPVPQGYHAASYYPAPHGGWVSSWREAYEKAYALVSQMTLAEKVNITSGVGWYMGPCVGNTGSVDRLGFPQLCLQDSALGVASADNVTAFPAGITTGATWDKQLMYARGVAIGKEFRGKGANIHLGPSVGPLGRKPLGGRNWEGFGSDPVLQGKAAALHIRGVQEQGIIATIKHLVGNEQEMYRMYHIFQEGYSANIDDRTLHELYLWPFAEAVRAGVGAAMTAYNAVNGSACSQNSYLINGILKDELGFQGLVMSDWLSHISGVGSALAGLDLNMPGDTNFPLFGNSLWQYELTRAVLNGSVPVDRLNDMATRVVATWYKFGQDKNHPRPNFSSNTRSRDGPLYPGALFSPSGQVNWFVNVQEDHYLVARQVAQDAITLLKNNDSLLPLDAGDLTGGKLSVFGTDAQVNPDGPNSCLARACNKGTLGMGWGSGIADYPYMDDPIGAIRKRVPDVKFYNTDSFPWFFGTPENDEVAMVFISSDSGENYLTVEGNHGDRDSAKLRAWHDGDKLVQKVAEKFKNVIVVVHTVGPLDLEPWIELPSVKAVLFAHLPGQEAGESLTNVLFGDVSPSGHLPYSITRKASDLPDSIANLKGFTWGQVQDTYSEGLYIDYRYLQKHSIQPRFAFGHGLSYTNFSFTNATIRAITTPLSVTPPAPPATRPASVVAKYSTDIPPASEAYEPAGFSRIWRYLYPWLSKSDADAAHAIGTSKSKTYPYPPGYSTVQRASFPPAGGGEGGNPALWDVAYEVTVRVTNTGKRPGKASAQLYLQFPEGIEYDTPVLQLRDFEKTKELQPGESQELKLTLTRKDVSVWDVRRQNWVVPTAIDDKKGFTAWVGEASDKLKVACYTGEGRCVEGAKQPV
With B6, under “optimal conditions”, the Km came to 2480 µM, the Vmax is 2.68 µmol/min/mg, the kcat worked out at 4.24 s⁻¹ and the kcat/Km came out at 1710 M⁻¹ s⁻¹.
